# Patent US20230293638A1 (Eli Lilly, published 2023)
# Changes are numbered by the printed parent chain. Numbered stars: 1 amine (or outer) side, 2 acyl side, 3 side chain; on linkers, the order of the positions; unused ones are H or OH. Square brackets hold non-standard residues; d marks the D form. Side chains are listed from the residue outwards. Ends that are not written are not given here. * marks the point of attachment. C20 diacid = O=C(O)CCCCCCCCCCCCCCCCCCC(=O)*; γGlu = O=C(O)[C@H](CCC(=O)[*:2])N[*:1]; AEEA = NCCOCCOCC(=O)O; Aib = CC(C)(N)C(=O)O
# B1: Peptide 221 (peptide)
# peptide: YXEGTXTSDYSIXLDEKAQXEFIXYLIEGGPSSGAPPPS
# modifications: Aib2; αMeF(2F)6; αMeL13; K17((2-[2-(2-Amino-ethoxy)-ethoxy]-acetyl)2-(γGlu)-CO-(CH2)16-CO2H); Aib20; D-Glu24; C-terminal NH2
# B2: Peptide 248 (peptide)
# peptide: B1 peptide with X13L, E16X
# modifications: not fully specified; Aib2; αMeF(2F)6; Orn16; K17((2-[2-(2-Amino-ethoxy)-ethoxy]-acetyl)2-(γGlu)-CO-(CH2)16-CO2H); Aib20; D-Glu24; C-terminal NH2
# B3: Peptide 241 (peptide)
# peptide: B1 peptide with Y10V, E16X, E21T, Y25X
# modifications: not fully specified; Aib2; αMeF(2F)6; αMeL13; Orn16; K17((2-[2-(2-Amino-ethoxy)-ethoxy]-acetyl)2-(γGlu)-CO-(CH2)16-CO2H); Aib20; D-Glu24; αMeY25; C-terminal NH2
# B4: Peptide 244 (peptide)
# peptide: B1 peptide with Y10L, E16X, E21A, Y25X
# modifications: not fully specified; Aib2; αMeF(2F)6; αMeL13; Orn16; K17((2-[2-(2-Amino-ethoxy)-ethoxy]-acetyl)2-(γGlu)-CO-(CH2)16-CO2H); Aib20; D-Glu24; αMeY25; C-terminal NH2
# B5: Peptide 236 (peptide)
# peptide: B1 peptide with E16X, Y25X
# modifications: not fully specified; Aib2; αMeF(2F)6; αMeL13; Orn16; K17((2-[2-(2-Amino-ethoxy)-ethoxy]-acetyl)2-(γGlu)-CO-(CH2)16-CO2H); Aib20; D-Glu24; αMeY25; C-terminal NH2
# B6: Peptide 227 (peptide)
# peptide: B1 peptide
# modifications: Aib2; αMeF6; αMeL13; K17((2-[2-(2-Amino-ethoxy)-ethoxy]-acetyl)2-(γGlu)-CO-(CH2)18-CO2H); Aib20; D-Glu24; C-terminal NH2
# B7: Peptide 233 (peptide)
# peptide: B1 peptide with Y10X, E16X
# modifications: not fully specified; Aib2; αMeF(2F)6; 4Pal10; αMeL13; Dab16; K17((2-[2-(2-Amino-ethoxy)-ethoxy]-acetyl)2-(γGlu)-CO-(CH2)16-CO2H); Aib20; D-Glu24; C-terminal NH2
# B8: Peptide 224 (peptide)
# peptide: B1 peptide
# modifications: Aib2; αMeF(2F)6; Aib13; K17((2-[2-(2-Amino-ethoxy)-ethoxy]-acetyl)2-(γGlu)-CO-(CH2)18-CO2H); Aib20; D-Glu24; C-terminal NH2
# B9: Peptide 230 (peptide)
# peptide: B1 peptide with E16H
# modifications: Aib2; αMeF(2F)6; αMeL13; K17((2-[2-(2-Amino-ethoxy)-ethoxy]-acetyl)2-(γGlu)-CO-(CH2)18-CO2H); Aib20; D-Glu24; C-terminal NH2
# B10: Peptide 251 (peptide)
# peptide: B1 peptide with Y10X, E16X, E21A, Y25X
# modifications: Aib2; αMeF(2F)6; 4Pal10; αMeL13; Orn16; K17((2-[2-(2-Amino-ethoxy)-ethoxy]-acetyl)2-(εK)-CO-(CH2)18-CO2H); Aib20; D-Glu24; αMeY25; C-terminal NH2
# B11: Peptide 243 (peptide)
# peptide: B1 peptide with Y10L, E16X, E21T, Y25X
# modifications: not fully specified; Aib2; αMeF(2F)6; αMeL13; Orn16; K17((2-[2-(2-Amino-ethoxy)-ethoxy]-acetyl)2-(γGlu)-CO-(CH2)16-CO2H); Aib20; D-Glu24; αMeY25; C-terminal NH2
# B12: Peptide 223 (peptide)
# peptide: B1 peptide with X24E, Y25X
# modifications: Aib2; αMeF(2F)6; αMeL13; K17((2-[2-(2-Amino-ethoxy)-ethoxy]-acetyl)2-(γGlu)-CO-(CH2)18-CO2H); Aib20; αMeY25; C-terminal NH2
# B13: Peptide 247 (peptide)
# peptide: B1 peptide with E16X
# modifications: not fully specified; Aib2; αMeF(2F)6; Aib13; Orn16; K17((2-[2-(2-Amino-ethoxy)-ethoxy]-acetyl)2-(γGlu)-CO-(CH2)16-CO2H); Aib20; D-Glu24; C-terminal NH2
# B14: Peptide 238 (peptide)
# peptide: B1 peptide with Y10L, E16X, Y25X
# modifications: not fully specified; Aib2; αMeF(2F)6; αMeL13; Orn16; K17((2-[2-(2-Amino-ethoxy)-ethoxy]-acetyl)2-(γGlu)-CO-(CH2)16-CO2H); Aib20; D-Glu24; αMeY25; C-terminal NH2
# B15: Peptide 239 (peptide)
# peptide: B1 peptide with Y10X, E16X, E21T, Y25X
# modifications: not fully specified; Aib2; αMeF(2F)6; 4Pal10; αMeL13; Orn16; K17((2-[2-(2-Amino-ethoxy)-ethoxy]-acetyl)2-(γGlu)-CO-(CH2)16-CO2H); Aib20; D-Glu24; αMeY25; C-terminal NH2
# B16: Peptide 249 (peptide)
# peptide: B1 peptide with E16X
# modifications: not fully specified; Aib2; αMeF(2F)6; Nle13; Orn16; K17((2-[2-(2-Amino-ethoxy)-ethoxy]-acetyl)2-(γGlu)-CO-(CH2)16-CO2H); Aib20; D-Glu24; C-terminal NH2
# B17: Peptide 250 (peptide)
# peptide: B1 peptide with E16X
# modifications: Aib2; αMeF(2F)6; Aib13; Orn16; K17((2-[2-(2-Amino-ethoxy)-ethoxy]-acetyl)2-(γGlu)-CO-(CH2)18-CO2H); Aib20; D-Glu24; C-terminal NH2
# B18: Peptide 242 (peptide)
# peptide: B1 peptide with Y10V, E16X, E21A, Y25X
# modifications: not fully specified; Aib2; αMeF(2F)6; αMeL13; Orn16; K17((2-[2-(2-Amino-ethoxy)-ethoxy]-acetyl)2-(γGlu)-CO-(CH2)16-CO2H); Aib20; D-Glu24; αMeY25; C-terminal NH2
# B19: Peptide 246 (peptide)
# peptide: B1 peptide with Y10A, E16X, E21A, Y25X
# modifications: not fully specified; Aib2; αMeF(2F)6; αMeL13; Orn16; K17((2-[2-(2-Amino-ethoxy)-ethoxy]-acetyl)2-(γGlu)-CO-(CH2)16-CO2H); Aib20; D-Glu24; αMeY25; C-terminal NH2
# B20: Peptide 222 (peptide)
# peptide: B1 peptide with Y25X
# modifications: Aib2; αMeF(2F)6; αMeL13; K17((2-[2-(2-Amino-ethoxy)-ethoxy]-acetyl)2-(γGlu)-CO-(CH2)18-CO2H); Aib20; D-Glu24; αMeY25; C-terminal NH2
# B21: Peptide 29 (peptide)
# peptide: Y[Aib]EGTFTSDYSILLDK([AEEA-AEEA-γGlu-C20 diacid])IAQ[Aib]AFIEYLIEGGPSSGAPPPS-NH2
# modifications: N-terminus assumed
# SMILES: CC[C@H](C)[C@H](NC(=O)[C@H](CCCCNC(=O)COCCOCCNC(=O)COCCOCCNC(=O)CC[C@H](NC(=O)CCCCCCCCCCCCCCCCCCC(=O)O)C(=O)O)NC(=O)[C@H](CC(=O)O)NC(=O)[C@H](CC(C)C)NC(=O)[C@H](CC(C)C)NC(=O)[C@@H](NC(=O)[C@H](CO)NC(=O)[C@H](Cc1ccc(O)cc1)NC(=O)[C@H](CC(=O)O)NC(=O)[C@H](CO)NC(=O)[C@@H](NC(=O)[C@H](Cc1ccccc1)NC(=O)[C@@H](NC(=O)CNC(=O)[C@H](CCC(=O)O)NC(=O)C(C)(C)NC(=O)[C@@H](N)Cc1ccc(O)cc1)[C@@H](C)O)[C@@H](C)O)[C@@H](C)CC)C(=O)N[C@@H](C)C(=O)N[C@@H](CCC(N)=O)C(=O)NC(C)(C)C(=O)N[C@@H](C)C(=O)N[C@@H](Cc1ccccc1)C(=O)N[C@H](C(=O)N[C@@H](CCC(=O)O)C(=O)N[C@@H](Cc1ccc(O)cc1)C(=O)N[C@@H](CC(C)C)C(=O)N[C@H](C(=O)N[C@@H](CCC(=O)O)C(=O)NCC(=O)NCC(=O)N1CCC[C@H]1C(=O)N[C@@H](CO)C(=O)N[C@@H](CO)C(=O)NCC(=O)N[C@@H](C)C(=O)N1CCC[C@H]1C(=O)N1CCC[C@H]1C(=O)N1CCC[C@H]1C(=O)N[C@@H](CO)C(N)=O)[C@@H](C)CC)[C@@H](C)CC
# B22: Peptide 32 (peptide)
# peptide: Y[Aib]EGTFTSDYSILLDKIAQ[Aib]K([AEEA-AEEA-γGlu-C20 diacid])FIEYLIEGGPSSGAPPPS-NH2
# modifications: N-terminus assumed
# SMILES: CC[C@H](C)[C@H](NC(=O)[C@H](CCCCN)NC(=O)[C@H](CC(=O)O)NC(=O)[C@H](CC(C)C)NC(=O)[C@H](CC(C)C)NC(=O)[C@@H](NC(=O)[C@H](CO)NC(=O)[C@H](Cc1ccc(O)cc1)NC(=O)[C@H](CC(=O)O)NC(=O)[C@H](CO)NC(=O)[C@@H](NC(=O)[C@H](Cc1ccccc1)NC(=O)[C@@H](NC(=O)CNC(=O)[C@H](CCC(=O)O)NC(=O)C(C)(C)NC(=O)[C@@H](N)Cc1ccc(O)cc1)[C@@H](C)O)[C@@H](C)O)[C@@H](C)CC)C(=O)N[C@@H](C)C(=O)N[C@@H](CCC(N)=O)C(=O)NC(C)(C)C(=O)N[C@@H](CCCCNC(=O)COCCOCCNC(=O)COCCOCCNC(=O)CC[C@H](NC(=O)CCCCCCCCCCCCCCCCCCC(=O)O)C(=O)O)C(=O)N[C@@H](Cc1ccccc1)C(=O)N[C@H](C(=O)N[C@@H](CCC(=O)O)C(=O)N[C@@H](Cc1ccc(O)cc1)C(=O)N[C@@H](CC(C)C)C(=O)N[C@H](C(=O)N[C@@H](CCC(=O)O)C(=O)NCC(=O)NCC(=O)N1CCC[C@H]1C(=O)N[C@@H](CO)C(=O)N[C@@H](CO)C(=O)NCC(=O)N[C@@H](C)C(=O)N1CCC[C@H]1C(=O)N1CCC[C@H]1C(=O)N1CCC[C@H]1C(=O)N[C@@H](CO)C(N)=O)[C@@H](C)CC)[C@@H](C)CC
# B23: Peptide 220 (peptide)
# peptide: YXEGTXTSDYSIXLDEKAQXEFIXYLIEGG
# modifications: Aib2; αMeF(2F)6; αMeL13; K17((2-[2-(2-Amino-ethoxy)-ethoxy]-acetyl)2-(γGlu)-CO-(CH2)16-CO2H); Aib20; D-Glu24; C-terminal NH2
# B24: Peptide 228 (peptide)
# peptide: YXEGTXTSDYSIXLDKKAQXEFIXYLIEGGPSSG
# modifications: Aib2; αMeF6; αMeL13; K17((2-[2-(2-Amino-ethoxy)-ethoxy]-acetyl)2-(γGlu)-CO-(CH2)18-CO2H); Aib20; D-Glu24; C-terminal NH2
# B25: Peptide 264 (peptide)
# peptide: B24 peptide with Y10X, K16X, Y25X
# modifications: Aib2; αMeF(2F)6; 4Pal10; αMeL13; Orn16; K17((2-[2-(2-Amino-ethoxy)-ethoxy]-acetyl)2-(γGlu)-CO-(CH2)16-CO2H); Aib20; D-Glu24; αMeY25; C-terminal NH2
# B26: Peptide 33 (peptide)
# peptide: Y[Aib]EGTFTSDYSILLDKIAQ[Aib]AFK([AEEA-AEEA-γGlu-C20 diacid])EYLIEGGPSSGAPPPS-NH2
# B27: Peptide 31 (peptide)
# peptide: Y[Aib]EGTFTSDYSILLDKIAK([AEEA-AEEA-γGlu-C20 diacid])[Aib]AFIEYLIEGGPSSGAPPPS-NH2
# modifications: N-terminus assumed
# SMILES: CC[C@H](C)[C@H](NC(=O)[C@H](CCCCN)NC(=O)[C@H](CC(=O)O)NC(=O)[C@H](CC(C)C)NC(=O)[C@H](CC(C)C)NC(=O)[C@@H](NC(=O)[C@H](CO)NC(=O)[C@H](Cc1ccc(O)cc1)NC(=O)[C@H](CC(=O)O)NC(=O)[C@H](CO)NC(=O)[C@@H](NC(=O)[C@H](Cc1ccccc1)NC(=O)[C@@H](NC(=O)CNC(=O)[C@H](CCC(=O)O)NC(=O)C(C)(C)NC(=O)[C@@H](N)Cc1ccc(O)cc1)[C@@H](C)O)[C@@H](C)O)[C@@H](C)CC)C(=O)N[C@@H](C)C(=O)N[C@@H](CCCCNC(=O)COCCOCCNC(=O)COCCOCCNC(=O)CC[C@H](NC(=O)CCCCCCCCCCCCCCCCCCC(=O)O)C(=O)O)C(=O)NC(C)(C)C(=O)N[C@@H](C)C(=O)N[C@@H](Cc1ccccc1)C(=O)N[C@H](C(=O)N[C@@H](CCC(=O)O)C(=O)N[C@@H](Cc1ccc(O)cc1)C(=O)N[C@@H](CC(C)C)C(=O)N[C@H](C(=O)N[C@@H](CCC(=O)O)C(=O)NCC(=O)NCC(=O)N1CCC[C@H]1C(=O)N[C@@H](CO)C(=O)N[C@@H](CO)C(=O)NCC(=O)N[C@@H](C)C(=O)N1CCC[C@H]1C(=O)N1CCC[C@H]1C(=O)N1CCC[C@H]1C(=O)N[C@@H](CO)C(N)=O)[C@@H](C)CC)[C@@H](C)CC
# Target: human GLP-1 receptor (human, UniProt P43220 24-463)
# Test: cell-based or functional assay
row,Binder,hGLPIR cAMP EC50 ratio
1,B1,0.795
2,B2,0.8
3,B3,1.89
4,B4,1.29
5,B5,1.65
6,B6,1.07
7,B7,0.535
8,B8,1.06
9,B9,0.599
10,B10,1.37
11,B11,1.22
12,B12,0.962
13,B13,0.614
14,B14,1.15
15,B15,0.987
16,B16,0.778
17,B17,0.985
18,B18,1.96
19,B19,2.56
20,B20,1.55
21,B21,0.0671
22,B22,0.136
23,B23,1.36
24,B24,1.1
25,B25,3.19
26,B26,0.000256
27,B27,0.0708
